In US20210380703A1 (RIGEL PHARMACEUTICALS, published 2021):
Substitutions are numbered along the chain they refer to.

B1: 375_B03 (antibody, V domains shown)
VH: EVQLLESGGGLVQPGGSLRLSCAASGFTFSSYSMNWVRQAPGKGLEWVAGINYNGGYTSYADSVKGRFTISRDNSKNTLYLQMNSLRAEDTAVYYCARGATWHDTHLDYWGQGTLVTVSS
VL: DIQMTQSPSSLSASVGDRVTITCRASQSILTYLNWYQQKPGKAPKLLIYAATSRASGVPSRFSGSGSGTDFTLTISSLQPEDFATYYCQQSYDSPLTFGGGTKVEIK
notes: VH/VL only
B2: 365_A03 (antibody, V domains shown)
VH: B1 VH with G55S, T58K, S59G, G99S, T101N, H106A
VL: B1 VL with T31S, L47V, A51V
notes: VH/VL only
B3: 365_A08 (antibody, V domains shown)
VH: B1 VH with G50S, T58K
VL: B1 VL with L30I, L47V, Y92D, D93N, S94T
notes: VH/VL only
B4: 365_A09 (antibody, V domains shown)
VH: B1 VH with S33G, N35H, G50S
VL: B1 VL with T31S, L33V, S94L
notes: VH/VL only
B5: 365_A11 (antibody, V domains shown)
VH: B1 VH with S30D, S31D, S33G, A49S, G55S, G99S, T101N, H106A
VL: B1 VL with T31S, L47V, R54L, D93E
notes: VH/VL only
B6: 365_A12 (antibody, V domains shown)
VH: B1 VH with S33G, N35H, R98K, G99S, T101N
VL: B1 VL with L33V, A55H, D93E, S94N
notes: VH/VL only
B7: 365_B07 (antibody, V domains shown)
VH: B1 VH with S33G, N35H, G50S, G55S, G99S, T101N, H106A
VL: B1 VL with D93E, S94N
notes: VH/VL only
B8: 365_B11 (antibody, V domains shown)
VH: B1 VH with S33G, N35H, G99S, T101N, H106A
VL: B1 VL with L30I, T31S, L47V, A51T, A55H
notes: VH/VL only
B9: 365_C02 (antibody, V domains shown)
VH: B1 VH with S30D, A49S, G50N, T58K, S59G
VL: B1 VL with L30S, L47V, A55H, D93E, S94N
notes: VH/VL only
B10: 365_C04 (antibody, V domains shown)
VH: B1 VH with S30D, G50N, T58K, S59G
VL: B1 VL with L47V, R54L, S94T
notes: VH/VL only
B11: 365_C10 (antibody, V domains shown)
VH: B1 VH with S33G, N35H, G50S, G99S, T101N, H106A
VL: B1 VL with T31S, L33V, R54L, D93E
notes: VH/VL only
B12: 365_C11 (antibody, V domains shown)
VH: B1 VH with T58K, G99S, T101N
VL: B1 VL with L30I, L47V, A51V, D93S, S94L
notes: VH/VL only
B13: 365_D02 (antibody, V domains shown)
VH: B1 VH with N35H, G50S
VL: B1 VL with L30V, R54L, S94N
notes: VH/VL only
B14: 365_D07 (antibody, V domains shown)
VH: B1 VH with S33G, A49S, G50S, G55S, T58K
VL: not shown
notes: VH/VL only
B15: 365_D09 (antibody, V domains shown)
VH: B1 VH with S33G, N35H, A49S, G55S, G99S, T101N, H106A
VL: B1 VL with T31S, Y92D, D93E
notes: VH/VL only
B16: 365_D10 (antibody, V domains shown)
VH: B1 VH with S59G
VL: B1 VL with L30S, D93E
notes: VH/VL only
B17: 365_D11 (antibody, V domains shown)
VH: B1 VH with S30D, S33G, A49S, G50N, G55S, G99S, T101N, H106A
VL: B1 VL with L30V, T31S, L47V, D93S
notes: VH/VL only
B18: 365_D12 (antibody, V domains shown)
VH: B1 VH with S30D, S33G, A49S, G50N, S59G, G99S, T101N, H106A
VL: B1 VL with L30V, L47V, S94T
notes: VH/VL only
B19: 365_E01 (antibody, V domains shown)
VH: B1 VH with S31D, A49S, G55S, T58K, S59G, G99S, T101N, H106A
VL: B1 VL with L30I, T31S
notes: VH/VL only
B20: 365_E05 (antibody, V domains shown)
VH: B1 VH with S33G, N35H, G99S, T101N, H106A
VL: B1 VL with L30V, T31S, L33V, R54L, S94N
notes: VH/VL only
B21: 365_E07 (antibody, V domains shown)
VH: B1 VH with S30D, S33G, N35H, A49S, G55S, R98K, G99S, T101N
VL: B1 VL with T31S, S94N
notes: VH/VL only
B22: 365_E09 (antibody, V domains shown)
VH: B1 VH with S33G, N35H, G50S, G55S, T58K, G99S, T101N, H106A
VL: B1 VL with L33V, L47V, Y92D
notes: VH/VL only
B23: 365_E11 (antibody, V domains shown)
VH: B1 VH with S30D, S31D, A49S, G50S, T58K
VL: not shown
notes: VH/VL only
B24: 365_F05 (antibody, V domains shown)
VH: B1 VH with S33G, G50S
VL: B1 VL with L30V, L33V, D93E, S94T
notes: VH/VL only
B25: 365_F06 (antibody, V domains shown)
VH: B1 VH with S33G, G55S, T58K, G99S, T101N, H106A
VL: B1 VL with T31S, L33V, Y92D, D93N, S94L
notes: VH/VL only
B26: 365_F12 (antibody, V domains shown)
VH: B1 VH with S31D, A49S, G99S, T101N
VL: B1 VL with L33V, L47V, A55H, D93E, S94T
notes: VH/VL only
B27: 365_G01 (antibody, V domains shown)
VH: B1 VH with S30D, S33G, G55S, T58K, G99S, T101N, H106A
VL: B1 VL with L33V, A51T
notes: VH/VL only
B28: 365_G11 (antibody, V domains shown)
VH: B1 VH with S33G, G50N, S59G, G99S, T101N, H106A
VL: B1 VL with L30I, L33V, A51V, A55H, D93N
notes: VH/VL only
B29: 365_H02 (antibody, V domains shown)
VH: B1 VH with S31D, S33G, A49S, G50S, S59G, G99S, T101N
VL: B1 VL with D93E, S94N
notes: VH/VL only
B30: 365_H05 (antibody, V domains shown)
VH: B1 VH with S33G
VL: B1 VL with L33V, R54L, A55H, D93S, S94T
notes: VH/VL only
B31: 365_H06 (antibody, V domains shown)
VH: B1 VH with S33G, A49S, G55S, S59G, G99S, T101N, H106A
VL: B1 VL with L30S, T31S, L33V, D93S, S94T
notes: VH/VL only
B32: 365_H10 (antibody, V domains shown)
VH: B1 VH with S30D, S33G, G55S, T58K, G99S, T101N
VL: B1 VL with L30V, L33V, L47V, R54L, D93N, S94T
notes: VH/VL only
B33: 365_H11 (antibody, V domains shown)
VH: B1 VH with A49S, G55S, S59G, G99S, T101N, H106A
VL: B1 VL
notes: VH/VL only
B34: 365_H12 (antibody, V domains shown)
VH: B1 VH with A49S, G50N, T58K, G99S, T101N
VL: B1 VL with L30I, L33V, D93S, S94T
notes: VH/VL only
B35: 369_F08 (antibody, V domains shown)
VH: B1 VH with S31D, S33G, N35H, A49S, G55S, T101N, H106A
VL: B1 VL with T31S, T52S, R54L, A55Q, S94L
notes: Group III

target: Mouse ACVR2A (mouse, UniProt P27038 20-135, limits assumed); test: ELISA
Sequence (P27038 20-135 limits assumed): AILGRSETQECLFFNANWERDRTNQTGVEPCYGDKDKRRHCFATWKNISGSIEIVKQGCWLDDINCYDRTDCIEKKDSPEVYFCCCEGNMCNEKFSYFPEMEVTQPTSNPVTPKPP
Protocol: (§1) The binding of ACVR2A-specific monoclonal antibodies to human ACVR2A, mouse ACVR2A, biotinylated goat anti-human kappa light chain (positive control) and human Fc (negative control) were determined by ELISA.
Note: test concentration or dose not given here.

Binder | optical density
B1 | 3.7 OD
B2 | 3.24 OD
B3 | 1.59 OD
B4 | 2.48 OD
B5 | 1.94 OD
B6 | 2.87 OD
B7 | 2.21 OD
B8 | 2.75 OD
B9 | 2.33 OD
B10 | 2.67 OD
B11 | 2.44 OD
B12 | 2.78 OD
B13 | 2.7 OD
B14 | 2.06 OD
B15 | 1.35 OD
B16 | 2.24 OD
B17 | 2.22 OD

Binder | optical density
B18 | 2.61 OD
B19 | 2.84 OD
B20 | 2.44 OD
B21 | 2.7 OD
B22 | 2.16 OD
B23 | 1.74 OD
B24 | 2.23 OD
B25 | 2.08 OD
B26 | 2.83 OD
B27 | 2.65 OD
B28 | 1.78 OD
B29 | 2.91 OD
B30 | 2.19 OD
B31 | 2.46 OD
B32 | 2.82 OD
B33 | 3.35 OD
B34 | 2.91 OD

target: T1, Human ACVR2A (human, UniProt P27037 20-135, limits assumed); test: ELISA
T1 construct: also called activin receptor, type II A
T1 sequence (P27037 20-135 limits assumed): as the sequence (P27038 20-135 limits assumed) above, with R20K, I73V counted along it
Protocol: as §1

Binder | optical density
B1 | 3.68 OD
B2 | 3.4 OD
B3 | 1.58 OD
B4 | 2.45 OD
B5 | 2.04 OD
B6 | 2.67 OD
B7 | 2.11 OD
B8 | 2.84 OD
B9 | 2.15 OD
B10 | 2.26 OD
B11 | 2.45 OD
B12 | 2.66 OD
B13 | 2.54 OD
B14 | 1.83 OD
B15 | 1.52 OD
B16 | 2.39 OD
B17 | 2.34 OD

Binder | optical density
B18 | 2.57 OD
B19 | 2.91 OD
B20 | 2.18 OD
B21 | 2.38 OD
B22 | 1.91 OD
B23 | 1.74 OD
B24 | 2.14 OD
B25 | 1.95 OD
B26 | 2.91 OD
B27 | 2.48 OD
B28 | 1.75 OD
B29 | 2.73 OD
B30 | 2.1 OD
B31 | 2.24 OD
B32 | 2.68 OD
B33 | 3.24 OD
B34 | 2.97 OD

target: T2, biotinylated goat anti-human kappa light chain; test: ELISA, positive control
T2 construct: positive control of the ELISA
Protocol: as §1

Binder | optical density
B35 | 3.1 OD

target: T3, Goat anti-Human Kappa; test: ELISA; positive control
T3 construct: Positive control; also called biotinylated goat anti-human kappa light chain
Protocol: as §1

Binder | optical density
B1 | 3.24 OD
B2 | 3.44 OD
B3 | 3.2 OD
B4 | 3.3 OD
B5 | 3.27 OD
B6 | 3.67 OD
B7 | 3.23 OD
B8 | 3.58 OD
B9 | 3.45 OD
B10 | 3.55 OD
B11 | 3.41 OD
B12 | 3.67 OD
B13 | 3.52 OD
B14 | 3.38 OD
B15 | 3.38 OD
B16 | 3.27 OD
B17 | 3.38 OD

Binder | optical density
B18 | 3.53 OD
B19 | 3.54 OD
B20 | 3.36 OD
B21 | 3.51 OD
B22 | 3.47 OD
B23 | 3.57 OD
B24 | 3.42 OD
B25 | 3.4 OD
B26 | 3.63 OD
B27 | 3.45 OD
B28 | 3.47 OD
B29 | 3.58 OD
B30 | 3.46 OD
B31 | 3.44 OD
B32 | 3.51 OD
B33 | 3.61 OD
B34 | 3.78 OD
